Reference: the nanobody polyreactivity screen of Harvey et al. (2022)

Assay: yeast display, Sf9 membrane polyspecificity reagent, FACS + sequencing; frameworks hold sequencing errors
Summary of the method: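 Nanobodies came from a synthetic yeast display library in Saccharomyces cerevisiae BJ5465, induced with galactose for 36–48 hours and stained for 1 hour at 4 °C with 10% biotinylated, detergent-solubilized Sf9 membrane reagent. Cells were enriched on streptavidin microbeads and then FACS-sorted, with low and high (top ~1%) gates set on anti-HA fluorescence for expression and streptavidin fluorescence for reagent binding. Each polyreactivity label reflects the gate a clone came from. Genes were amplified by colony PCR, sequenced by MiSeq 2 × 250 and filtered by CDR length.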

Row | Sequence | polyreactivity (PSR sort gate)
1 | QVQLVESGGGLVQAGGSLRLSCAASRSIFYDYVMGWYRQAPGKEREFVAAISWGGDSTYYADSVKGRFTISRDNAKNTVYLQMISLKPEDTAVYYCNADYPWSVVGYDYWGQGTQVTVSS | low polyreactivity
2 | QVQLVESGGGLVQAGGSLRLSCAASGFIFYRNTMGWYRQAPGKEREFVAAIRWRGGSTYYADSVKGRFTISRDNAKNTVYLQMNSLKPEDTAVYYCAADSRPVYSGFEYWGQGTQVTVSS | high polyreactivity
3 | QVQLVESGGGLVQAGGSLRLSCAASGRTFFFYAMGWYRQAPGKERELVADITWSDGTTYYAESVKGRFTISRDNAKNTVYLQMNSLKPEDTAVYYCAKVRTGQSRSVGYDYWGQGTQVTVSS | low polyreactivity
4 | QVQLVESGGGLVQAGGSLRLSCAASGSIFYVYAMGWYRQAPGKVRELVATISSSAGSTYYADSVKGRFTISRDNAKNTVYLQMNSLKPEDTAVYYCIADSFLSWVYRYVYYGSAYWGQGSQVTVSS | low polyreactivity
5 | QVQLVESGGGLVQAGGSLRLSCAASGRIIYKYAMGWYRQAPGKERELVAAISYSGGSTYYADSVKGRFTISRDNAKNTVYLQMKSLKPEDTAVYYCNAKPPYGVRSWGDYWGQGTQVNVSS | low polyreactivity
6 | QVQLVESGGGLVQAGVSLRLSCAASGITFARYTMGWYRQAPGKERELVAAINTSGGSTRYADSVKGRFTISRDNAKNTVYLQMNSLKPEDTAVYYCAARRKHSLFGKRYYWGQGTQVTVSS | high polyreactivity
7 | QVQLVESGGGLVQAGGSLRLSCAASGRIFYGYAMGWYRQAPGKERELVAAISRGGTRTFYADSVKGRFTISRDNAKNTVYLQMNSLKPEDTAVYYCAADPGPHRYSYDYWGQGTQVTVSS | high polyreactivity
8 | QVQHVESGGGLVQAGGSLRLSCAASGSTFGPNAMGWYRQAPGKERELVAAINTRGGSTYYADSVKGRFTISRDNAKNTVYLQMNSLKPEDTAVYYCAAEYVVWYLDRFNYWGQGTQVTVSS | high polyreactivity
9 | QVQLQESGGGLVQAGGSLRPRCAPAGTIFLSVNMGWYRHAPGEEREFVASITQGATTNYADSLIGRFTISRDNAKNTVYLQMNCQKPEDTAVYYCAAYPRFYGGKYGEYGYWGQGTQVTVSS | high polyreactivity
10 | QVQLVESGGGLVQAGGSLRLCCASSGSTFTYNTMGWYRQAPGKERELVAAISFSSGRTYYADSVKVRFTISRYNAINTVYLHINSLKPEDTAVYYCNARTWETLRGYDYWGQGTQVTVSS | high polyreactivity
11 | QVQLVESGGGLVQAGGRLRFSCAASGFIFRYYAMGCYRQAPGKERELVAAIDYSGGSTNYADSVKGRFTISRDNAKNTVYLQMNSLKPEETAVYYCNAEYTWHRGYDYWGQGTLVTVSS | low polyreactivity
12 | QVQLVESGGGLVQAGGSLRLSCAASGRIFPPNAMGWYRQAPGKERELVAAITRGGSTNYADSVKGRFTISRDNAKNTVYLQMNSLKPEDTAVYYCAARGLRRQAPFYYWGQGTQVTVSS | high polyreactivity
13 | PVQLVESGGGLDQAGGSLRLTCAASGSIFYYNAKGWYRQSPGKERELVAAISSDGGTYYADSVKARFTISRDNAKKTVYLQMNSLKPEDTAVYYCAASQPSTYDYWGQGTQLTVSS | high polyreactivity
14 | QVQLVESGGGLVQAGGSLRLSCAASGSIFDYYTMGWYRQAPGKERELVATIRSGDSTNYADSVKGRFTISRDNAKNTVYLQMNSLIPEDTAVYYCAADDGAYPTLYDYWGQGTQVTVST | low polyreactivity
15 | QVQLVESGGGLVQAGGSLRLSCAASGSTFYTYAMGWYRQAPGKERELVAAISGSGGRTYYADSVKGRFTISRDNAKNTVYLQMNSLKPEDTAVYYCAAYSYRKHATGSRDMDYWGQGTQVTVSS | high polyreactivity
16 | QVQLVESGGGLVQAGGSLRLSCAASGFTFRVYAMGWYRQAPGKERELVASITWSGASTYYADSVKGRFTISRDNAKNTVYLQMNSLKPEDTAVYYCAAKYSDYQYGRYYYWGQGTQVTVSS | high polyreactivity
17 | QVQLVESGGGLVQAGGSLRLSCAASGFTLTPYAMGWYRQAPGKERELVAAITYTGGSTYYADSVKGRFTISRDNAKNTVYLQMNSLKPEDTAVYYCAAEFLSVPYDYCYWGQGTQVTVSS | high polyreactivity
18 | QVQLVESGGGLVQAGGSLRLSCAASGRSFYTNAMGWYRPAPGKERELLAAIRRSGTSTYYADSVKGRFTISRDNAYNTVYLQMNSLKPEDTAVYYCAALRSLLYRTYGYWGLGTQVTVSS | low polyreactivity
19 | QVQLVESGGGLVQAGGSLRLSCAASGSIFRYNAKGWYRQAPGKERELVAARRSRGGSTNYADSVKGRFTISRDNAKNTVYLQMNSLKPEDNAVYFCAADGSYTKTTIYIFGGLDFWGQGTQVTVSS | low polyreactivity
20 | QVQLVESGGGLVQAGGSLRLSCAASGSTFVRNGMGWYRQSPGKVRELVASISGRGGSTYYADSVKGRFTISRDNAKNTVYLQMNSLKPEDTAVYYCAARKQRGGGPTFDYWGQGTQVTVSS | high polyreactivity
21 | QVQLVESGGGLVQAGGSLRLSCAASGSTFGPYAMGWYRQAPGKERELVATITRNGGSTYYADSVKGRFTISRDNAKNTVYLQMNILKPEDTAVYYCNAEGRWSSFTQRMDYWGQGTQVTVSS | low polyreactivity
22 | QVQLVESGGGLVQAGGSLRLSCAASGSIFEPYVMGWYRQAPGKERELVAVITSGSGRTYYADSVKGRFTISRDNAKNTVYLQMNSLKPEDTAVYYCNKAYLGYRYDLYDYWGQGTQVTVSS | low polyreactivity

Row | Sequence | polyreactivity (PSR sort gate)
23 | QVQLVESGGGLVQAGGSLRLSCAASGSIFYGNTMGWYRQAPGKERELVAAIRSVGRTYYADSVKGRFTISRDNAKNTVYLQMNSLKPEDTAVYYCAADPRSYFTSEYWGQGTQVTVSS | high polyreactivity
24 | QVQLEESGGGLVQAGGSLLLSCAASGLIFYHNAMGWYIQAPGKERELVAAITASGGSTYYADSVKGRFTISRDNANNTVYLQIISLKTEDTAVYYCAADGPLDSDLDYWRQGTQVTVSS | low polyreactivity
25 | QVQLVESGGGLVQARGSLRLSCAATGFTIWQNAMGWYRQPQGKERELVAGIRLSGGSTYADSVKGRFTIARDNAKNTVYLQMNSLKPEDTAVYYCAARIAGNYRYRSLRYDYWGQGTQVTVSS | high polyreactivity
26 | QVQLVESGGGLVQAGGSLRLSCAASGRIFSFNARGWYRPAPGKETELVAGITYGGNTYYADSVKGRFTISRDNAKNTVYLQMNSLKPEDTAVYYCAADGVYDQNLYGFWGQGTQVTVSS | low polyreactivity
27 | QVQLVESGGGLVQAGCSLRISCAASGITFGRKTMGWSRQAPGKERELVAAIDSGGNTYADSVKGRFTISRDNAKNTVYLQMNSLKPEDTAVYYCAVDGGEFSSYGYWGQGTQVTVSS | low polyreactivity
28 | QVQLVESGGGLVQAGGSLRLSCAASGRTFQEYAMGWYRQAPGKERELVADISDGGSTNYADSVKGRFTISRDNAKNTVYLLMKSLKPEDTAGYYCAAARPGWRVGYDYWGQGTQVTVSS | low polyreactivity
29 | QVQLVESGGGLVQAGGSLRLSCAASGLIFHSYAMGWYRPAPGKERELVAAISRGGGSTYYADSVKGRFTISRDNAKNTVYLQMNSLKPEDTAVYYCAREYFTRYDYWGQGTQVTVSS | high polyreactivity
30 | QVQHVESGGGLVQAGRSLRLSCAASGFIFRYSAMGWYRPAPGKERELVATITGRGGSTYYADSVKGRFTISRDNAKNTVYLQMNSLIPEDTAVYYCAARARYSPAPYDYWGQGTQVTVSS | high polyreactivity
31 | QVQLVESGGGIVQAGGSLRFSCAASGFTFWKYTRGWYRQAPGKERELVAAINGGGGDTYADSVKGRFTISRDNAKNTVYLQMNSLKPEDTAVYYCAARYGTGTTWVQPTEMDYWGQGTQVTVSL | low polyreactivity
32 | QVQLVESGGGLVQAGGSLRLSCAASGFTFGGNDMGWYSQAPGKERELVAAIRSSGDTTYYADSVKGRFTISRDNAKNTVYLQMNSLKPEDTAVSYCAAYSHHQFSRSEYYYWGKGTQVTVSS | low polyreactivity
33 | QVQLVESGGGLVQAGGSLRLSCAASGRIFHANAMGWYRQAPGKERELVAGISRNGGRTYYADSVKGRFTISRDNAKNTVYLQMNSLKPEDTAVYYCAARVWGSSQYYYWGQGTQVTVSS | high polyreactivity
34 | QVQLVESGGGIVQAGGSLRLSCAASGNIFFWYDMGWYRQAPGKERELVATITSSGGSTYYADSVKGRFTISRDNAKNTVYLQMNSLKPEDTAVYYCNALPYYRDDYWGQGTQVTVSS | low polyreactivity
35 | QVQLVESGGGLVQAGGSLRLSGAASGFIFGSYAMGWYRQAPGKERELVAAISRSGGRTYYADSVKGRFTISRDNAKNTVYLQMNSLKPEYTAVYYCNAVGYGVFFRSSDRTKFDYWGQGTQVTVSS | high polyreactivity
36 | QVQLVESGGGLVQAGGSLRLSCAASGSTFDINAMGWYRQAPGKERELVAAITWRSGRTYYADSVKGRFTISRDNAKNNVYLQMNSLKPEDTAVYYCAADDTSYYIYSYDYWGQGTQVTVSS | low polyreactivity
37 | QVQLVESGGGLVQAGGSLRLSCAASGGIFVYYAMGWYRQAPGKERELVAAISSGGTTNYADSVKGRFTISRDNAKNTVYLQMNSLKPEDTAVYYCAIYVSWPLYYYWGQGTQVTVSS | low polyreactivity
38 | QVQLVESGGGLVQAGGSLRLSCAASGSTIRYNAMGWYRQAPGKERELVAAISRSGGSTYYADSVKGRFTISRDNAKNTVYLQRTSLKTEDTAVYYCAADRGARGDYWGQGTQVTVSS | high polyreactivity
39 | QVQLVESGGGLVQAGGSLRLSCAATGRTFGFNDMGWYRKATGKEREFVAAINSGGNTYYADSVKGRFTISRDNAKNTVYLQMNSLKPEDTAVYECAVKRASRYYVRKEYYYWGQGTQVTVSS | high polyreactivity
40 | QVQLVESGGGLVQAGGSLRLSCAASGLILKYYAMGWYRQAPGKEREFVAAITRRGGITYYADSVKGRFTISRDNAKNTVYLQMNSLKPEDTAVYSCAADPILGSLAYWRYSYPLYDYWGQGTQVTVSS | low polyreactivity
41 | QVQLEESGGGLVQAGGSLRLSCAASGYTFYRYTMGWYRQAPGKERELVAAISSRGGSKYYADSVKGRFTISRDNAKNTVYLQMNSLKPEDTAVYFCARKYPRKTLSKGFDYWGQGTQVTVSS | high polyreactivity
42 | QVQLVESGGGLVQAGGSLRLSCAASGSTFYYYAMGWYRQAPGKERELVASIRSRDGSTRYADSVKGRFTISRDNAKNTVYLQMNSLKPEDTAVYYCAAVGYRRVDAGSSASRYDYWGQGTQVTVSS | high polyreactivity
43 | QVQLVESGGGLVQAGGSLRLSCAASGSILYFNAMGLYRQAPGKERELVATITSGGSTNYADSVKWRFTISRDNAKNTVYLQMNSQKPEDTAVYYSAADYSTRKADYWVQGTQVTVSS | low polyreactivity
